{"source": "patent US20250376519A1", "about": "(JIANGSU HENGRUI PHARMACEUTICALS, published 2025)", "key": {"[1]": {"molecular_target": "T1, human DLL3 protein (screening antigen) (human, UniProt Q9NYJ7 27-492, limits assumed)", "T1 construct": "Biotinylated in the phage panning", "T1 sequence": "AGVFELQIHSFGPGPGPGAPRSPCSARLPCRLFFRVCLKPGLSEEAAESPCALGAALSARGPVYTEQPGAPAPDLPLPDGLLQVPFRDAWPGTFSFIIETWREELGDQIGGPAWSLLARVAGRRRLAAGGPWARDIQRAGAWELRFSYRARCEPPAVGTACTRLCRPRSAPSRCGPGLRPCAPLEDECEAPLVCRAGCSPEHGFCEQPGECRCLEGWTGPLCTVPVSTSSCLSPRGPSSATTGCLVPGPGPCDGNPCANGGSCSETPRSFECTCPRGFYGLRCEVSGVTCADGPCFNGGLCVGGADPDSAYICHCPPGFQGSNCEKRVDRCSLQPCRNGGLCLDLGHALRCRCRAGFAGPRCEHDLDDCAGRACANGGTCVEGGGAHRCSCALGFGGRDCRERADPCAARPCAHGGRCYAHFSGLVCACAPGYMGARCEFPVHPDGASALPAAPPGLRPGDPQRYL", "assay": "phage ELISA"}, "[2]": {"molecular_target": "T2, monkey DLL3 protein (screening antigen) (cynomolgus monkey, UniProt Q9NYJ7 27-492 (human entry), limits assumed)", "T2 chain": "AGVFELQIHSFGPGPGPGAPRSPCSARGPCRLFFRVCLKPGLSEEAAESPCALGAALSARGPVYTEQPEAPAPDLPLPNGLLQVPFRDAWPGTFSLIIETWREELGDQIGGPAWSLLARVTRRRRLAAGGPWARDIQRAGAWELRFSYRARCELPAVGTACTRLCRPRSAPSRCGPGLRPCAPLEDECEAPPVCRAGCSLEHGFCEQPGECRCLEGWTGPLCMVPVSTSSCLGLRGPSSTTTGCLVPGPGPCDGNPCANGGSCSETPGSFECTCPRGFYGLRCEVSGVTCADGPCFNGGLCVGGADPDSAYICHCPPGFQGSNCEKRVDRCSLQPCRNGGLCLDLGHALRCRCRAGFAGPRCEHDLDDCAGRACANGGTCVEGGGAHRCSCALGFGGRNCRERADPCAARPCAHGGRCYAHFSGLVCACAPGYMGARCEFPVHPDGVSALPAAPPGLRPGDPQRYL", "assay": "phage ELISA"}, "[3]": {"molecular_target": "T1, human DLL3 protein (screening antigen)", "assay": "ELISA, hybridoma supernatant", "experimental": "(§1) Spleen lymphocytes and the myeloma cells, Sp2/0 cells (ATCC® CRL-8287™), were fused by following an optimized electrofusion procedure to obtain hybridoma cells. Based on the growth density of hybridoma cells, the hybridoma culture supernatant was assayed using an ELISA method with binding to DLL3 protein and a FACS method with binding to DLL3 CHO-s cells."}, "[4]": {"molecular_target": "T2, monkey DLL3 protein (screening antigen)", "assay": "ELISA, hybridoma supernatant", "experimental": "as §1"}, "human DLL3 on cells [5]": {"molecular_target": "T3, human DLL3 on cells (human, UniProt Q9NYJ7 27-618)", "T3 construct": "Endogenous on H1184 and SHP77; Cell line is named under assay; also called H1184; DLL3/H82", "T3 sequence": "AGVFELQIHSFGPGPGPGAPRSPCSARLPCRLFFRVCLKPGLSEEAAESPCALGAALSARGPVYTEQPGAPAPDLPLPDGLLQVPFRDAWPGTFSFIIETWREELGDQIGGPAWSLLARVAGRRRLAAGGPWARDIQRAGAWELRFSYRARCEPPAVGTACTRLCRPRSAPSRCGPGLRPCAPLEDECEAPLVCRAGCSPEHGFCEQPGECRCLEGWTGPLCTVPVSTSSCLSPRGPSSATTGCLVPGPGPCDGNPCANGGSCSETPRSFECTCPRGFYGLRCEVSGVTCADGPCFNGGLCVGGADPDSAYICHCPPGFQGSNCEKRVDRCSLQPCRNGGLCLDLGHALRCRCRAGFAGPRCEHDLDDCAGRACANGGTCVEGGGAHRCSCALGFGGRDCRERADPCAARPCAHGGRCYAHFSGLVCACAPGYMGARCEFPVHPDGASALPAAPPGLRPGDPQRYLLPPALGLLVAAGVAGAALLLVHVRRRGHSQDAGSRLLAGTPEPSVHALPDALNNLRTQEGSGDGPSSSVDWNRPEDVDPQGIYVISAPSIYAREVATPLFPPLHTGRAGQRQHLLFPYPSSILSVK", "assay": "FACS, DLL3 CHO-s cells, hybridoma supernatant", "experimental": "as §1"}, "human DLL3 on cells [6]": {"molecular_target": "T3, human DLL3 on cells", "assay": "cell-based or functional assay"}}}
{"binder": "mAb30 (antibody, V domains shown) VH: EVRLQQFGPVLVKPGASVKMSCKASGYTFTDYYMNWVKQSHGKSLEWIGIINPYNGDTSYNQKFRGKATLTVDKSSSTAYMELNSLTSEDSAVYYCARYHYGPHLEGYFDVWGTGTTLTVSS VL: DIVMTQSPKSMSMSVGERVTLSCKASENVGYVSWYQQKPEQSPKLLIYGASNRYTGVPDRFTGSGSATDFTLTISSVQAEDLADYHCGQSYSYPLTFGSGTKLEIK", "values": [{"measurement": "binding result", "setting": "[1]", "result": "binds"}, {"measurement": "binding result", "setting": "[2]", "result": "binds"}]}
{"binder": "mAb110 (antibody, V domains shown, murine hybridoma antibody (culture supernatant)) VH: EVQLQQSGPVLVKPGASVKMSCKTSGYTFTDYYMNWVKQSHGKSLEWIGIINPYNGGTSYTQKFKGKATLTVDKSSSTAYMELNSLTSEDSTVYFCARHFYDSSYLTYSTMDYWGQGTSVTVSS VL: NIVMTQSPKSMSMSVGERVTLSCKASENVGIFVSWYQQKPKQSPKLLIYGASNRYTGVPDRFTGSGSATDFTLTISSVQAEDLADYYCGQSHSYPLTFGTGTKLELK", "values": [{"measurement": "binding result", "setting": "[3]", "result": "binds"}, {"measurement": "binding result", "setting": "[4]", "result": "binds"}, {"measurement": "binding result", "setting": "human DLL3 on cells [5]", "result": "binds"}]}
{"binder": "mAb6 (antibody, V domains shown, murine hybridoma antibody (culture supernatant)) VH: EVQLQQSGPVLVKPGASVKMSCKASGYTFTDYYMNWVKQSHGKSLEWIGIINPYSGVTIYNHKFKGKATLTVDKSSNTAYMELNSLTSEDSAVYYCARQDSLLDYAMDYWGQGTSVTVSS VL: DILMTQSPSSMSVSLGDTVSITCHASQGISGNMGWLQQKPGKSFKGLIYHGANLEDGVPSRFSGSGSGADYSLTISSLESEDFADYYCVQYAQFPYTFGGGTKLEIK", "values": [{"measurement": "binding result", "setting": "[4]", "result": "binds"}]}
{"binder": "mAb98 (antibody, V domains shown, murine hybridoma antibody (culture supernatant)) VH: EVQLVESGGGLVKPGGSLKLSCAASGFTFSDYGIHWVRQAPEKGLEWVAYISSGGYTIYYADTVKGRFTISRDNAKNTLFLQMTSLRSEDTAMYYCARGDYDDIFYTMDYWGQGTSVTVSS VL: DIQMTQTTSSLSASLGDRVTISCRASRDITKFLNWYQQKPDGTVKLLIYYTSRLHSGVPSRFSGSGSGTDYSLTISNLDQEDIATYFCQQGNTLPWTFGGGTKLDIK", "values": [{"measurement": "binding result", "setting": "[4]", "result": "binds"}]}
{"binder": "BI-764532 (bispecific antibody, human IgG1, kappa, lambda, L234A L235A) chain 1: DIQMTQSPSAMSASVGDRVTITCRASQGISNYLVWFQQKPGKAPKRLIYAVSSLYSGVPSRFSGSGSGTEFTLTISSLQPEDFATYYCLQHDSYPYTFGQGTKLEIKRTVAAPSVFIFPPSDEQLKSGTASVVCLLNNFYPREAKVQWKVDNALQSGNSQESVTEQDSKDSTYSLSSTLTLSKADYEKHKVYACEVTHQGLSSPVTKSFNRGECGGGGSEGKSSGSGSESKSTEGKSSGSGSESKSTGGGGSQVQLVQSGAEVKKPGASVKVSCKASGYTFTSYYVHWVRQAPGQGLEWMVIINPGGGTTSYAQKFLGRVTMTRDTSTNTVYMELKSLRSEDTAVYYCARGEAVTGNYFYYGMDVWGQGTTVTVSSASTKGPSVFPLAPSSKSTSGGTAALGCLVKDYFPEPVTVSWNSGALTSGVHTFPAVLQSSGLYSLSSVVTVPSSSLGTQTYICNVNHKPSNTKVDKRVEPKSCDKTHTCPPCPAPEAAGGPSVFLFPPKPKDTLMISRTPEVTCVVVDVSHEDPEVKFNWYVDGVEVHNAKTKPREEQYNSTYRVVSVLTVLHQDWLNGKEYKCKVSNKALPAPIEKTISKAKGQPREPQVYTLPPSREEMTKNQVSLWCLVKGFYPSDIAVEWESNGQPENNYKTTPPVLDSDGSFFLYSKLTVDKSRWQQGNVFSCSVMHEALHNHYTQKSLSLSPG chain 2: EAVVTQEPSLTVSPGGTVTLTCRSSTGAVTTSNYANWVQEKPGQLPRGLIGGTNKRAPWVPARFSGSLLGGKAALTLSGAQPEDEAEYFCALWYSNLWVFGGGTKLTVLGQPKAAPSVTLFPPSSEELQANKATLVCLISDFYPGAVKVAWKADGSPVNTGVETTTPSKQSNNKYAASSYLSLTPEQWKSHRSYSCQVTHEGSTVEKTVAPAECSGGGGSEGKSSGSGSESKSTEGKSSGSGSESKSTGGGGSEVQLVESGGGLVQPGGSLKLSCAASGFTFNTYAMNWVRQAPGKGLEWVARIRSKYNNYATYYADSVKDRFTISRDDSKNTAYLQMNNLKTEDTAVYYCVRHGNFGNSYVSWFAYWGQGTLVTVSAASTKGPSVFPLAPSSKSTSGGTAALGCLVKDYFPEPVTVSWNSGALTSGVHTFPAVLQSSGLYSLSSVVTVPSSSLGTQTYICNVNHKPSNTKVDKRVEPKSCDKTHTCPPCPAPEAAGGPSVFLFPPKPKDTLMISRTPEVTCVVVDVSHEDPEVKFNWYVDGVEVHNAKTKPREEQYNSTYRVVSVLTVLHQDWLNGKEYKCKVSNKALPAPIEKTISKAKGQPREPQVYTLPPSREEMTKNQVSLSCAVKGFYPSDIAVEWESNGQPENNYKTTPPVLDSDGSFFLVSKLTVDKSRWQQGNVFSCSVMHEALHNRFTQKSLSLSPG", "values": [{"measurement": "IC50, PBMC killing of SHP77/lucG cells", "setting": "human DLL3 on cells [6]", "result": 44.6, "unit": "pM"}, {"measurement": "Imax (%), PBMC killing of SHP77/lucG cells", "setting": "human DLL3 on cells [6]", "result": 97, "unit": "%"}]}
